{"source": "patent US20250320303A1", "about": "(SHENGHE CHINA BIOPHARMACEUTICAL, published 2025)", "binders": {"B1": {"name": "Antibody 23 (antibody, V domains shown)", "VH": "EVQLVQSGAEVKKPGATVKISCKVSGYSITDYLLHWVQQAPGKGLEWMGWIDPEEGKTKYGQKFQSRVTITADTSTDTAYMELSSLRSEDTAVYYCAANSGTGTMDAWGQGTLVTVSS", "VL": "DIVMTQSPATLSVSPGERATLSCKASQNVGSNVDWYQQKPGQSPRVLIYKASIRYTGIPARFSGSGSGTEFTLTISILQSEDFAVYFCMQSKSYPITFGQGTKLEIK", "notes": "captured on AHC sensors"}, "B2": {"name": "Antibody 26 (antibody, V domains shown)", "VH": "B1 VH with G101A", "VL": "B1 VL", "notes": "captured on AHC sensors"}, "B3": {"name": "Antibody 27 (antibody, V domains shown)", "VH": "B1 VH with E55D, G56A, N99Q", "VL": "B1 VL", "notes": "captured on AHC sensors"}, "B4": {"name": "Antibody 25 (antibody, V domains shown)", "VH": "B1 VH with N99Q", "VL": "B1 VL", "notes": "captured on AHC sensors"}, "B5": {"name": "Antibody 28 (antibody, V domains shown)", "VH": "B1 VH with E55D, G56A, G101A", "VL": "B1 VL", "notes": "captured on AHC sensors"}, "B6": {"name": "Antibody 24 (antibody, V domains shown)", "VH": "B1 VH with E55D, G56A", "VL": "B1 VL", "notes": "captured on AHC sensors"}, "B7": {"name": "Antibody 21 (antibody, V domains shown)", "VH": "EVQLVESGGGLVKPGGSLRLSCAASGFTFSNAWMGWVRQAPEKGLEWVGQIKDKSNNYPTYYAESVKGRFTISRDDSKNTLYLQMNSLKTEDTAVYYCTTYGDFFDYWGQGTLVTVSS", "VL": "DIQMTQSPSSLSASVGDRVTITCRASEDIYNALAWYQQKPGKVPKLLLYNANSLHTGVPSRFSGSGSGTDYTLTISSLQPEDFATYFCQQYYDHPLTFGQGTKLEIK", "notes": "detected with anti-human IgG and captured on AHC sensors"}, "B8": {"name": "Antibody 22 (antibody, V domains shown)", "VH": "B7 VH", "VL": "B7 VL with N31Q, A32G", "notes": "as for B7"}, "B9": {"name": "Antibody 12 (antibody, V domains shown)", "VH": "QVQLVQSGAEVKKPGASVKVSCKASGYTFTDYIIHWVRQAPGQGLEWMGWIDPDYGNTDYADKFKKRVTMTADTSISTAFMELSRLRSDDTAVYYCARDDGSPLVMDAWGQGTLVTVSS", "VL": "DIQMTQSPSSLSASVGDRVTITCQGSQNIDNYLAWFQQKPGKAPKLLIYSTYSLQTGVPSRFSGSRSGTDFTLTISSLQPEDFATYFCFQYNNGYMFGGGTKLELK", "notes": "as for B7"}, "B10": {"name": "Antibody 19 (antibody, V domains shown)", "VH": "B9 VH with G101A", "VL": "B9 VL with N93Q", "notes": "captured on AHC sensors"}, "B11": {"name": "Antibody 17 (antibody, V domains shown)", "VH": "B9 VH with D100E", "VL": "B9 VL", "notes": "as for B7"}, "B12": {"name": "Antibody 18 (antibody, V domains shown)", "VH": "B9 VH", "VL": "B9 VL with N93Q", "notes": "captured on AHC sensors"}, "B13": {"name": "Antibody 14 (antibody, V domains shown)", "VH": "B9 VH with G101A", "VL": "B9 VL with Q24N", "notes": "as for B7"}, "B14": {"name": "Antibody 15 (antibody, V domains shown)", "VH": "B9 VH with G101A", "VL": "B9 VL", "notes": "as for B7"}, "B15": {"name": "Antibody 13 (antibody, V domains shown)", "VH": "B9 VH", "VL": "B9 VL with Q24N, S26A", "notes": "as for B7"}, "B16": {"name": "Antibody 16 (antibody, V domains shown)", "VH": "B9 VH with D100E", "VL": "B9 VL with Q24N", "notes": "as for B7"}}, "note": "Where a chain is given by its changes, count along the chain named."}
{"molecular_target": "T1, human W3785-hProl.ECD.His (Human-TNFR2-His) protein (human, UniProt P20333 23-257)", "T1 construct": "extracellular domain; not shown: His tag", "T1 sequence (looked up)": "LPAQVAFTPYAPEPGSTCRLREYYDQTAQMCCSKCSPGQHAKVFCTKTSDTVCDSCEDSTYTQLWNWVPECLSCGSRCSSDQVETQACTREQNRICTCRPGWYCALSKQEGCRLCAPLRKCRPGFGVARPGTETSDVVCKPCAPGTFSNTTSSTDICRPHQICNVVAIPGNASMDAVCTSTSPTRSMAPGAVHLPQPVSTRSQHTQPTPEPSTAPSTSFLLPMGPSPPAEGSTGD", "assay": "BLI (Octet Red96e), antibody on AHC sensor, Human-TNFR2-His in solution, multiple concentrations", "units": {"Kd": "pM", "koff": "s⁻¹", "kon": "M⁻¹ s⁻¹"}}
{"binder": "B1", "Kd": 766, "koff": 0.000371, "kon": 484000}
{"binder": "B2", "Kd": 55.1, "koff": "1.41e-05", "kon": 256000}
{"binder": "B3", "Kd": 537, "koff": 0.00077, "kon": "1.44e+06"}
{"binder": "B4", "Kd": 1390, "koff": 0.00193, "kon": "1.39e+06"}
{"binder": "B5", "Kd": "< 1", "koff": "< 1e-07", "kon": 225000}
{"binder": "B6", "Kd": 152, "koff": 0.000109, "kon": 718000}
{"binder": "B7", "Kd": 177, "koff": 0.000145, "kon": 821000}
{"binder": "B8", "Kd": 330, "koff": 0.000165, "kon": 500000}
{"binder": "B9", "Kd": 86.3, "koff": 0.000102, "kon": "1.21e+06"}
{"binder": "B10", "Kd": 1480, "koff": 0.00127, "kon": 862000}
{"binder": "B11", "Kd": 133, "koff": 0.000124, "kon": 933000}
{"binder": "B12", "Kd": 63.8, "koff": "6.22e-05", "kon": 974000}
{"binder": "B13", "Kd": 3030, "koff": 0.00282, "kon": 931000}
{"binder": "B14", "Kd": 2060}
{"binder": "B15", "Kd": 117, "koff": 0.000134, "kon": "1.15e+06"}
{"binder": "B16", "Kd": 117, "koff": 0.000134, "kon": "1.15e+06"}
{"molecular_target": "T1, human W3785-hProl.ECD.His …", "assay": "indirect ELISA on coated Human-TNFR2-His", "description": "(1) Coating: Human-TNFR2-His was diluted to 0.5 μg/mL with coating solution (1×PBS, pH 7.4), and coated into a 96-well ELISA plate at 100 μL/well at 4° C. overnight. The coating solution was poured off, and the plate was washed with 1×PBST at 300 μL per well, washed with a plate cleaning instrument for 4 times, and patted dry on sheet paper. [0184] (2) Blocking: it was blocked with 3% non-fat dry milk at 300 μL/well, and incubated at 37° C. for 1 h. The blocking solution was poured off, washed by a plate cleaning instrument for 4 times, and patted dry on sheet paper. [0185] (3) Sample dilution: the reference product and the test product were diluted with 3% non-fat dry milk to 10 μg/mL, and this was used as the initial concentration for 3-fold dilution with a total of 11 gradients of dilution, and another one blank well was set up, and only diluent was added. It was incubated at 100 μL/well at 37° C. for 1 h. Liquid in the wells was discarded, washed by a plate cleaning instrument for 4 times, and patted dry on the sheet paper. [0186] (4) Addition of enzyme-labeled secondary antibody: Peroxidase-conjugated AffiniPure F(ab′)2 Fragment Goat Anti-Human IgG was diluted with 3% non-fat dry milk at 1:20,000. It was incubated at 100 μL/well at 37° C. for 1 h. It was washed by a plate cleaning instrument for 6 times and patted dry on sheet paper. […] (5) Color development: TMB color development solution was added at 100 μL/well and wrapped with aluminium foil, and the color was developed at 37° C. without light for 8 min. [0188] (6) Termination of color development: terminal solution 1 M HCl was added to terminate the color development reaction at 100 μL/well. [0189] (7) Reading at 450 nm on the enzyme labeler. [0190]", "units": {"EC50": "µg/mL"}}
{"binder": "B7", "EC50": 0.0147}
{"binder": "B8", "EC50": 0.0137}
{"binder": "B9", "EC50": 0.0135}
{"binder": "B11", "EC50": 0.0149}
{"binder": "B13", "EC50": 0.00375}
{"binder": "B14", "EC50": 0.0032}
{"binder": "B15", "EC50": 0.00496}
{"binder": "B16", "EC50": 0.0203}
